Measurements published in paper PMC4105704 (Cell, 2014).

Legend:
[1] = molecular target: Hermes79-612 C519S (Musca domestica); assay: crystal structure
[2] = molecular target: HermesΔ497-516 (Musca domestica)
[3] = molecular target: full-length Hermes expressed in Sf9 cells (Musca domestica); assay: SEC
[4] = molecular target: full-length Hermes expressed in budding yeast (Musca domestica); assay: SEC
SEC = molecular target: the molecule itself; assay: SEC

Work on Hermes79-612 C519S (domain or fragment) yielded a stoichiometry N [1] of 8.

With HermesΔ497-516 (enzyme) the stoichiometry N [2] was 2.

“full-length Hermes expressed in Sf9 cells (enzyme)” gave a stoichiometry N [3] of 8.

For “full-length Hermes expressed in budding yeast (enzyme)”, the stoichiometry N [4] was 8.

B1: full-length Hermes transposase (E. coli-expressed) (enzyme, Musca domestica, UniProt Q25438 1-612, looked up)
chain: MQKMDNLEVKAKINQGLYKITPRHKGTSFIWNVLADIQKEDDTLVEGWVFCRKCEKVLKYTTRQTSNLCRHKCCASLKQSRELKTVSADCKKEAIEKCAQWVVRDCRPFSAVSGSGFIDMIKFFIKVKAEYGEHVNVEELLPSPITLSRKVTSDAKEKKALISREIKSAVEKDGASATIDLWTDNYIKRNFLGVTLHYHENNELRDLILGLKSLDFERSTAENIYKKLKAIFSQFNVEDLSSIKFVTDRGANVVKSLANNIRINCSSHLLSNVLENSFEETPELNMPILACKNIVKYFKKANLQHRLRSSLKSECPTRWNSTYTMLRSILDNWESVIQILSEAGETQRIVHINKSIIQTMVNILDGFERIFKELQTCSSPSLCFVVPSILKVKEICSPDVGDVADIAKLKVNIIKNVRIIWEENLSIWHYTAFFFYPPALHMQQEKVAQIKEFCLSKMEDLELINRMSSFNELSATQLNQSDSNSHNSIDLTSHSKDISTTSFFFPQLTQNNSREPPVCPSDEFEFYRKEIVILSEDFKVMEWWNLNSKKYPKLSKLALSLLSIPASSAASERTFSLAGNIITEKRNRIGQQTVDSLLFLNSFYKNFCKLDI
With B1 the “stoichiometry N” value (SEC) was 8.
